The values that follow are results of earlier work, collected in paper PMC1562422.

By Kd is commonly meant the equilibrium constant for the complex coming apart.

Data set [1] concerns the target IL2 receptor β chain (Homo sapiens) (UniProt P14784). Briefly: SPR. For orientation: Surface plasmon resonance follows binding to a sensor surface in real time, without labels.
The target of data set [2] is IL2 receptor γ chain (Homo sapiens) (UniProt P31785).
The target of data set [3] is IL2 receptor β chain (Homo sapiens) (UniProt P14784). Nature of the data set: ITC.
The target of data set [4] is IL2 receptor α chain (Homo sapiens) (UniProt P01589). Nature of the data set: ITC. In general terms: In ITC the heat of successive injections is recorded.

IL2, sequence (P60568 21-153): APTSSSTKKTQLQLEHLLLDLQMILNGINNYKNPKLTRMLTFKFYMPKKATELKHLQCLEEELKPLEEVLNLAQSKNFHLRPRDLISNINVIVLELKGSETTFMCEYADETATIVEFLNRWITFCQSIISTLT
UniProt P14784, sequence (P14784 27-240): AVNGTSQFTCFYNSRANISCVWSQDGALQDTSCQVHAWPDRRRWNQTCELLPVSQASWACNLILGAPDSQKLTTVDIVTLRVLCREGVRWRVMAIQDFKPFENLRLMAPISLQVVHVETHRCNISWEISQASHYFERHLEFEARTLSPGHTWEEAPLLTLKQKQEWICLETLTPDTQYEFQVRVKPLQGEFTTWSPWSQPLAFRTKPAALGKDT
UniProt P31785, sequence (P31785 23-262): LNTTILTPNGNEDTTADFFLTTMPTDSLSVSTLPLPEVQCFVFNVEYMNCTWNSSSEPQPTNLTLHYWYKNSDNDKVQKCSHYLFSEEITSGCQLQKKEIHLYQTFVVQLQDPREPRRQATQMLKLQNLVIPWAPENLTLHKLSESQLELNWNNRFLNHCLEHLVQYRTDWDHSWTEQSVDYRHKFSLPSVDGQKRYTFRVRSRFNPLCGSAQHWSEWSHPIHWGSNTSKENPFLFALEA

In the case of IL2 (from UniProt P60568), the Kd in data set [1] is 0.45 µM; in data set [2], above 700 µM; in data set [3] it was 0.144 µM; in data set [4], 0.01 µM.
Regarding “IL2 receptor α chain (from UniProt P01589)”, in data set [3], the Kd is 0.278 µM.
